Assay type in all cases: biochemical
Data set [1] can be described thus: Kinetic constants for n-alkanes: pentane. The following applies: N.a. = not active. The protocol:
(§1) Rate measurements. Initial rates of product formation were determined at 25° C. in 100 mM KPi pH 8.0 buffer using purified protein (100 nM) and a substrate concentration of 1.6 mM. In a 5 mL-vial, 20 μL of alkane solution (in ethanol) were dissolved in 400 μL KPi buffer, to which 500 μL enzyme solution at 100-200 nM was added. Reaction was initiated by adding 100 μL of 5 mM NADPH solution, followed by stirring at 300 rpm for 1 minute, and quenched by adding 200 μL chloroform and stirring at 800 rpm for 10 sec. Solutions were transferred to an Eppendorf tube, to which internal standard (10 μL 25 mM 1-bromohexane in ethanol) was added. Tubes were vortexed for 10 sec and centrifuged for 30 sec at 10,000 g. Organic phase was removed and analyzed by GC. For propane, reactions were carried out in a 5 mL-scale using 100-400 nM purified enzyme, propane-saturated buffer (propane concentration≈1.6 mM) and a final NADPH concentration of 500 μM. Reactions were stopped by addition of 200 μL H2SO4 conc. and analyzed by derivatization to alkyl nitrites followed by GC-ECD analysis as described below.
(§2) Products from alkane reactions were identified and quantified by gas chromatography using authentic standards and calibration curves with internal standards. For the reactions with alkanes from pentane to decane, GC analyses were carried out using a Shimadzu GC-17A gas chromatograph, Agilent HP5 column (30 m×0.32 mm×0.1 μm film), 1 μL injection, FID detector, and the following separation program: 250° C. inlet, 250° C. detector, 50° C. oven for 3 min, 5° C./min gradient to 100° C., 25° C./min gradient to 230° C., and 230° C. for 3 min. For butane and propane (TTN) reactions, GC analyses were carried out using a Hewlett-Packard 5890 Series II Plus gas chromatograph, Supelco SPB-1 column (60 m×0.52 mm×0.5 μm film), 0.5 μL injection, FID detector, and the following separation program: 250° C. inlet, 275° C. detector, 80° C. oven for 2 min, 10° C./min gradient to 110° C., 25° C./min gradient to 275° C., and 275° C. for 2.5 min. For ethane and propane (rate) reactions, analysis of reaction mixtures was carried out by derivatization to alkyl nitrites followed by GC-ECD analysis. For laurate, reaction product analysis was carried out by derivatization with N-methyl-N-trimethylsilylheptafluorobutyramide followed by extraction with hexane. Organic solutions were analyzed by FID-GC.
(§3) To further investigate the evolution of substrate specificity, kinetic constants for the C5 to C8 alkanes were determined from Michaelis-Menten plots (Table 19). The preference of 35E11 and its evolutionary predecessors for medium-chain alkanes is indicated by their high C8/C5 specificities ((kcat/Km)8/(kcat/Km)5˜100), where Km appears to be the major contributing factor. […]

A short description of data set [2]: Kinetic constants for n-alkanes: hexane. The following applies: N.a. = not active. As to the method:
as §1, §2, §3

Data set [3] in a line: Kinetic constants for n-alkanes: octane. As to the method: as §1, §2
To further investigate the evolution of substrate specificity, kinetic constants for the C5 to C8 alkanes were determined from Michaelis-Menten plots (Table 19). The preference of 35E11 and its evolutionary predecessors for medium-chain alkanes is indicated by their high C8/C5 specificities ((kcat/Km)8/(kcat/Km)5˜100), where Km appears to be the major contributing factor. C8/C5 specificity decreases to ˜5 in the immediate precursors of P450PMO and then switches altogether to the smaller alkane, becoming 0.4 in P450PMO. In P450PMO, catalytic efficiency is highest on propane and decreases along the alkane series, driven by decreasing kcat.

Data set [4] can be described thus: Reactions on alkanes, total turnovers (Table 18): propane. The protocol:
Reactions on alkanes. Reactions with alkanes from pentane to decane were carried out at 3 mL-scale using 100 mM KPi pH 8.0 buffer containing 2% ethanol (to allow alkane solubilization) and purified protein. 2.5 mL KPi buffer were added with 60 μL of 90 mM alkane solution in ethanol (final conc.=1.8 mM), 150 μL enzyme solution at 1 μM (final conc.=50 nM), and 300 μL NADPH regeneration solution (100 units/mL isocitrate dehydrogenase, 70 mg/mL isocitrate, 1.5 mg/ml NADP^+). Vials were sealed and stirred for 24 hours at 4° C. 1 mL-aliquot of the reaction was removed, added with 10 μl internal standard (25 mM 1-bromohexane in ethanol), and extracted with 200 μl chloroform (30 sec vortexing, 1 min centrifugation at 10000 g). The organic phase was removed and analyzed by gas chromatography. Reactions with ethane, propane, and butane were carried out as described for longer alkanes with the only difference that alkane-saturated KPi buffer was used. Propane reactions with variants from HL5 and L9 libraries were performed on 1 mL-scale reaction using 20 nM enzyme to reduce oxygen limitation. Propane and butane reactions were analyzed by direct injection of reaction solution on the GC using 1-pentanol as internal standard. Ethane reaction products were functionalized (see below) and analyzed by GC using 1-butanol as internal standard. All measurements were performed in triplicate.
as §2
Because 35E11 was only marginally stable, the engineering strategy described herein (see below) involved an initial stabilization step followed by iterative rounds of mutagenesis and screening. Random, saturation and site-directed mutagenesis methods were used to create libraries of mutants (FIG. 35), which were screened for activity on a propane surrogate, dimethyl ether. Positives were confirmed in a re-screen and purified for further analysis. Reactions with purified enzymes were carried out in sealed vials in the presence of propane-saturated buffer and a cofactor regeneration system. Improvement in propane total turnover number-moles of propanol produced per mole of enzyme—was a selection criterion for taking a mutant to the next round.
TTNs for each variant-substrate pair were determined using standardized reaction conditions (identical enzyme and substrate concentration, incubation time, cofactor regeneration system) (Table 18). TTN values were used to assess performance because TTN is a cumulative measure of both catalytic and coupling efficiency and because mutants were selected based on improvement in this property. […]

Data set [5] can be described thus: Reactions on laurate. The note with it: laurate 2 mM, 5 hours, room temperature. The protocol: Reactions on laurate. P450PMO activity on laurate was tested mixing the substrate (2 mM) with purified protein (up to 0.5 μM) in 100 mM KPi pH 8.0 buffer, and adding NADPH to final concentration of 1 mM. Reaction mixtures were incubated for 5 hours at room temperature under gentle stirring. Analysis of the hydroxylated products was carried out by derivatization with N-methyl-N-trimethylsilylheptafluorobutyramide (Aldrich) followed by GC analysis according to a published procedure. A control experiment was carried out using wild-type P450BM3.
Products from alkane reactions were identified and quantified by gas chromatography using authentic standards and calibration curves with internal standards. For the reactions with alkanes from pentane to decane, GC analyses were carried out using a Shimadzu GC-17A gas chromatograph, Agilent HP5 column (30 m×0.32 mm×0.1 μm film), 1 μL injection, FID detector, and the following separation program: 250° C. inlet, 250° C. detector, 50° C. oven for 3 min, 5° C./min gradient to 100° C., 25° C./min gradient to 230° C., and 230° C. for 3 min. […] Organic solutions were analyzed by FID-GC. […]

Entries after “also recorded” stand apart in the source; their conditions may differ.

B1: P450PMO: P450 BM-3 variant, SEQ ID NO:125; 7-7 plus G443A and D698G; propane monooxygenase (protein)
chain: TIKEMPQPKTFGELKNLPLLNTDKPVQALMKIADELGEIFKFEAPGCVTRYISSQRLIKEACDESRFDKNLSQELKFFRDFGGDGLFTSWTHEINWKKAHNILLPSFSQQAMKGYHAMMVDIAVQLVQKWERLNADEHIEVSEDMTRLTLDTIGLCGFNYRFNSFYRDQPHPFIISMVRALDEVMNKPQRANPDDPAYDENKRQCQEDIKVMNDLVDKIIADRKARGEQSDDLLTQMLNGKDPETGEPLDDGNISYQIITFLIAGHETTSGLLSFALYFLVKNPHVLQKVVEEAARVLVDPVPSYKQVKQLKYVGMVLNEALRLWPTFPAFSLYAKEDTVLGGEYPLEKGDEVMVLIPQLHRDKTVWGDDVEEFRPERFENPSAIPQHAFKPFGNGQRACIGQQFALHEATLVLGMMLKHFDFEDHTNYELDIKETLTLKPEAFVVKAKSKKIPLGGIPSPSTGQSAKKVRKKAENAHNTPLLVLYGSNMGTAEGTARDLADIAMSKGFAPQVATLDSHAGNLPREGAVLIVTASYNGHPPDNAKQFVDWLDQASADEVKGVRYSVFGCGDKNWATTYQKVPAFIDETLAAKGAENIADRGEADASDDFEGTYEEWREHMWSDVAAYFNLDIENSEDNKSTLSLQFVDSAADMPLAKMHGAFSTNVVASKELQQPGSARSTRHLEIELPKEASYQEGGHLGVIPRNYEGTVNRVTARFGLDASQQIRLEAEEEKLAHLPLAKTVSVEELLQYVELQDPVTRTQLRAMAAKTVCPPHKVELEALLEKQAYKEQVLAKRLTMLELLEKYPACEMKFSEFIALLPSIRPRYYSISSSPRVDEKQASITVSVVSGEAWSGYGEYKGIASNYLAELQEGDTITCFISTPQSEFTLPKDPETPLIMVGPGTGVAPFRGFVQARKQLKEQGQSLGEAHLYFGCRSPHEDYLYQEELENAQSEGIITLHTAFSRMPNQPKTYVQHVMEQDGKKLIELLDQGAHFYICGDGSQMAPAVEATLMKSYADVHQVSEADARLWLQQLEEKGRYAKDVWAG
modifications: Mutant P450PMO protein sequence
notes: 7-7 plus G443A and D698G; propane monooxygenase
As to B1, the Km (in general, the concentration of substrate that gives half-maximal velocity) in data set [1] is 835 ± 117 µM; in data set [2], 430 ± 91 µM; in data set [3], 185 ± 40 µM. Further, the kcat (as a rule, the maximal rate divided by the concentration of active sites) in data set [1] came out at 2.5 ± 0.233 s⁻¹; in data set [2], 1.42 ± 0.283 s⁻¹; in data set [3], 0.217 ± 0.067 s⁻¹. Further, the “increase of total turnovers on propane” value in data set [4] (compared to 139-3) came to 100 fold. In addition, in data set [4] (propane (3 C atoms), TTN normalized to the highest value of the variant's series), the “% rel. act.” value turned out to be 100.0%. The same molecule returned a TTN in data set [4] (propane (3 C atoms), total turnovers, standardized reaction conditions) of 20500 ± 1900. The “turnovers on propane (TTN)” value in data set [4] (propane-saturated buffer, cofactor regeneration system) was “more than 20,000”. Besides, in data set [5], the “hydroxylation products of laurate” value is “no hydroxylation product could be detected; also recorded: no detectable amounts of hydroxylated fatty acids”.

The values are drawn from patent US12258605B2, “Alkane oxidation by modified hydroxylases” (The California Institute of Technology, priority 2005, dated 2025).
